Results on 41 molecules are retold here after article PMC11417369, “DNA sequence and chromatin differentiate sequence-specific transcription factor binding in the human malaria parasite Plasmodium falciparum”.

T1: AP2-LT D1 (Plasmodium falciparum, UniProt Q8IAM1 2520-2577)
T1 sequence: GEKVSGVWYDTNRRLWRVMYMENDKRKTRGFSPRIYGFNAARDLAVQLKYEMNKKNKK

B1: CACACA_site1020 (dsDNA)
DNA 1: AACAGACGAAGACACACACACATATATATATATATA
DNA 2: TATATATATATATATGTGTGTGTGTCTTCGTCTGTT
B2: CACACA_site2267 (dsDNA)
DNA 1: AATATAAATAAAAACACACACACACCCATATATATA
DNA 2: TATATATATGGGTGTGTGTGTGTTTTTATTTATATT
B3: CACACA_site905 (dsDNA)
DNA 1: AAAAAGGAGAAACACACACACACACCCATATATATA
DNA 2: TATATATATGGGTGTGTGTGTGTGTTTCTCCTTTTT
B4: CACACA_site6447 (dsDNA)
DNA 1: AATACACGCAGACACACACACACACGCACATATATA
DNA 2: TATATATGTGCGTGTGTGTGTGTGTCTGCGTGTATT
B5: CACACA_site8234 (dsDNA)
DNA 1: CTATTTCATAAACACACACACACAAACAAACATATA
DNA 2: TATATGTTTGTTTGTGTGTGTGTGTTTATGAAATAG
B6: CACACA_site6473 (dsDNA)
DNA 1: AAAAAAAAAAGACACACACACACACTAATACATACA
DNA 2: TGTATGTATTAGTGTGTGTGTGTGTCTTTTTTTTTT
B7: CACACA_site706 (dsDNA)
DNA 1: AAAAAAAAAAAACACACACACACAAATACATACACA
DNA 2: TGTGTATGTATTTGTGTGTGTGTGTTTTTTTTTTTT
B8: CACACA_site6255 (dsDNA)
DNA 1: TTTATTAATAGACACACACACACACGCAAAATAAAA
DNA 2: TTTTATTTTGCGTGTGTGTGTGTGTCTATTAATAAA
B9: CACACA_site453 (dsDNA)
DNA 1: CAAAGACACAAACACACACACACATACATACATACA
DNA 2: TGTATGTATGTATGTGTGTGTGTGTTTGTGTCTTTG
B10: CACACA_site2666 (dsDNA)
DNA 1: AAAAAACACAGACACACACACATATACATACATACA
DNA 2: TGTATGTATGTATATGTGTGTGTGTCTGTGTTTTTT
B11: CACACA_site9255 (dsDNA)
DNA 1: AAAGAAGGTAAACACACACACACACCGACAAAAAAA
DNA 2: TTTTTTTGTCGGTGTGTGTGTGTGTTTACCTTCTTT
B12: CACACA_site517 (dsDNA)
DNA 1: AATTAACAAAAACACACACACACACCCACAAAAAAA
DNA 2: TTTTTTTGTGGGTGTGTGTGTGTGTTTTTGTTAATT
B13: CACACA_site481 (dsDNA)
DNA 1: ATAATCCTGAAACACACACACACACCCATAAATAAA
DNA 2: TTTATTTATGGGTGTGTGTGTGTGTTTCAGGATTAT
B14: CACACA_site493 (dsDNA)
DNA 1: AACATACAGAAACACACACACACACCCACACCCACA
DNA 2: TGTGGGTGTGGGTGTGTGTGTGTGTTTCTGTATGTT
B15: CACACA_site5031 (dsDNA)
DNA 1: AGTATACTCGGACACACACACACATATATATATATA
DNA 2: TATATATATATATGTGTGTGTGTGTCCGAGTATACT
B16: CACACA_site7106 (dsDNA)
DNA 1: AAAAAACACGCGCACACACACACACGCGCCCACATA
DNA 2: TATGTGGGCGCGTGTGTGTGTGTGCGCGTGTTTTTT
B17: CACACA_site4493 (dsDNA)
DNA 1: GGCATACACGGACACACACACACACCGACATATATA
DNA 2: TATATATGTCGGTGTGTGTGTGTGTCCGTGTATGCC
B18: CACACA_site8452 (dsDNA)
DNA 1: AAAAAAAAAAAACATACACACACATATATATATATA
DNA 2: TATATATATATATGTGTGTGTATGTTTTTTTTTTTT
B19: CACACA_site9270 (dsDNA)
DNA 1: AAAAAAAAAAAATATACACACACACCGACACATAAA
DNA 2: TTTATGTGTCGGTGTGTGTGTATATTTTTTTTTTTT
B20: CACACA_site8248 (dsDNA)
DNA 1: TGAACTCACGAGCACACACACACATATATATATATA
DNA 2: TATATATATATATGTGTGTGTGTGCTCGTGAGTTCA
B21: CACACA_site7866 (dsDNA)
DNA 1: GGATATAACAGACACACACACACATATAAATATATT
DNA 2: AATATATTTATATGTGTGTGTGTGTCTGTTATATCC
B22: CACACA_site8035 (dsDNA)
DNA 1: TAAGTATACACATACACACACACACTAATAAAAAAA
DNA 2: TTTTTTTATTAGTGTGTGTGTGTATGTGTATACTTA
B23: CACACA_site5873 (dsDNA)
DNA 1: AATAACCACGGACACACACACATATATATATATATA
DNA 2: TATATATATATATATGTGTGTGTGTCCGTGGTTATT
B24: CACACA_site5809 (dsDNA)
DNA 1: AACACCCATGGACACACACACATATATATATATATA
DNA 2: TATATATATATATATGTGTGTGTGTCCATGGGTGTT
B25: CACACA_site5033 (dsDNA)
DNA 1: TCATAGTATGGACACACACACACACCCATATATATA
DNA 2: TATATATATGGGTGTGTGTGTGTGTCCATACTATGA
B26: CACACA_site499 (dsDNA)
DNA 1: CACCCACCCAGACACACACACACAAAAAAAAAAAGA
DNA 2: TCTTTTTTTTTTTGTGTGTGTGTGTCTGGGTGGGTG
B27: CACACA_site8097 (dsDNA)
DNA 1: CATACACCCCAACACACACACACACCCATATATAAT
DNA 2: ATTATATATGGGTGTGTGTGTGTGTTGGGGTGTATG
B28: CACACA_site4354 (dsDNA)
DNA 1: CACAGACACGGACACACACACACACCCATATATATA
DNA 2: TATATATATGGGTGTGTGTGTGTGTCCGTGTCTGTG
B29: CACACA_site5977 (dsDNA)
DNA 1: AATGACAACCTTGTCACACATATATATATATATATA
DNA 2: TATATATATATATATATGTGTGACAAGGTTGTCATT
B30: CACACA_site4314 (dsDNA)
DNA 1: AATAAATAAAGAAGTACACACATATATATATATATA
DNA 2: TATATATATATATATGTGTGTACTTCTTTATTTATT
B31: CACACA_site5250 (dsDNA)
DNA 1: CGCGCCCAGAAACACACACACACACCGATATATATA
DNA 2: TATATATATCGGTGTGTGTGTGTGTTTCTGGGCGCG
B32: CACACA_site2920 (dsDNA)
DNA 1: CATACATACAGACACACACACATATATATATATATA
DNA 2: TATATATATATATATGTGTGTGTGTCTGTATGTATG
B33: CACACA_site4351 (dsDNA)
DNA 1: CCCACAGACGGACACACACACATATATATATATATA
DNA 2: TATATATATATATATGTGTGTGTGTCCGTCTGTGGG
B34: CACACA_site2248 (dsDNA)
DNA 1: TATACATAGAAACACACACACATATATATATATATA
DNA 2: TATATATATATATATGTGTGTGTGTTTCTATGTATA
B35: CACACA_site363 (dsDNA)
DNA 1: CACACCCACAGACACACACACACATATATATATATA
DNA 2: TATATATATATATGTGTGTGTGTGTCTGTGGGTGTG
B36: CACACA_site773 (dsDNA)
DNA 1: TATATATAGAAACACACACACATATATATATATATA
DNA 2: TATATATATATATATGTGTGTGTGTTTCTATATATA
B37: CACACA_site4674 (dsDNA)
DNA 1: CATATAAAAGGACACACACACACATATATATATATA
DNA 2: TATATATATATATGTGTGTGTGTGTCCTTTTATATG
B38: CACACA_site4437 (dsDNA)
DNA 1: CATATACACGAACACACACACATATATATATATATA
DNA 2: TATATATATATATATGTGTGTGTGTTCGTGTATATG
B39: CACACA_site1992 (dsDNA)
DNA 1: TGGGTAAACAAACACACACACATATATATATATATA
DNA 2: TATATATATATATATGTGTGTGTGTTTGTTTACCCA
B40: CACACA_site6448 (dsDNA)
DNA 1: AAAATACACGCATACACACACACACGCGCACATATA
DNA 2: TATATGTGCGCGTGTGTGTGTGTATGCGTGTATTTT
B41: CACACA_site268 (dsDNA)
DNA 1: AATATAAACCCAAACACACACATATATATATATATA
DNA 2: TATATATATATATATGTGTGTGTTTGGGTTTATATT

This data set concerns the target T1, AP2-LT D1. Briefly: gcPBM; about 25 ug protein; PBS, 1% milk, 0.2 mg/ml BSA, salmon testes DNA, 0.03% Triton X-100. The settings on record: tags: N-terminal GST (pGEX-4T-1), kept; label: surface-attached array probe.
Consider B1, for which the binding signal is 10.4 ln median PBM intensity, better of two orientations.

For the molecule B2, the binding signal is 10.6 ln median PBM intensity, better of two orientations.

In the case of B3, the binding signal is 10.2 ln median PBM intensity, better of two orientations.

Take B4: the binding signal was 10.3 ln median PBM intensity, better of two orientations.

As to B5, the binding signal is 10.2 ln median PBM intensity, better of two orientations.

B6: the binding signal is 10.6 ln median PBM intensity, better of two orientations.

As for B7, the binding signal is 10.4 ln median PBM intensity, better of two orientations.

As for B8, the binding signal was 10.4 ln median PBM intensity, better of two orientations.

Turning to B9, the binding signal is 10.6 ln median PBM intensity, better of two orientations.

As for B10, the binding signal is 10.6 ln median PBM intensity, better of two orientations.

In the case of B11, the binding signal is 10.6 ln median PBM intensity, better of two orientations.

Consider B12, for which the binding signal was 10.3 ln median PBM intensity, better of two orientations.

B13: the binding signal is 10.4 ln median PBM intensity, better of two orientations.

Consider B14, for which the binding signal was 10.6 ln median PBM intensity, better of two orientations.

B15: the binding signal is 10.6 ln median PBM intensity, better of two orientations.

As to B16, the binding signal is 10.5 ln median PBM intensity, better of two orientations.

With B17, the binding signal was 10.6 ln median PBM intensity, better of two orientations.

Regarding B18, the binding signal was 10.3 ln median PBM intensity, better of two orientations.

With B19, the binding signal is 10.2 ln median PBM intensity, better of two orientations.

In the case of B20, the binding signal was 10.5 ln median PBM intensity, better of two orientations.

For the molecule B21, the binding signal was 10.4 ln median PBM intensity, better of two orientations.

Regarding B22, the binding signal is 10.2 ln median PBM intensity, better of two orientations.

Take B23: the binding signal was 10.5 ln median PBM intensity, better of two orientations.

With B24, the binding signal was 10.5 ln median PBM intensity, better of two orientations.

Turning to B25, the binding signal is 10.2 ln median PBM intensity, better of two orientations.

As to B26, the binding signal is 10.6 ln median PBM intensity, better of two orientations.

Turning to B27, the binding signal is 10.6 ln median PBM intensity, better of two orientations.

With B28, the binding signal was 10.3 ln median PBM intensity, better of two orientations.

Consider B29, for which the binding signal is 10.2 ln median PBM intensity, better of two orientations.

Take B30: the binding signal is 10.3 ln median PBM intensity, better of two orientations.

Consider B31, for which the binding signal is 10.2 ln median PBM intensity, better of two orientations.

Regarding B32, the binding signal is 10.4 ln median PBM intensity, better of two orientations.

Regarding B33, the binding signal is 10.2 ln median PBM intensity, better of two orientations.

Consider B34, for which the binding signal was 10.2 ln median PBM intensity, better of two orientations.

As for B35, the binding signal was 10.3 ln median PBM intensity, better of two orientations.

Turning to B36, the binding signal was 10.3 ln median PBM intensity, better of two orientations.

As for B37, the binding signal was 10.6 ln median PBM intensity, better of two orientations.

Consider B38, for which the binding signal is 10.4 ln median PBM intensity, better of two orientations.

On to B39, for which the binding signal was 10.5 ln median PBM intensity, better of two orientations.

For B40, the binding signal is 10.2 ln median PBM intensity, better of two orientations.

On to B41, for which the binding signal was 10.3 ln median PBM intensity, better of two orientations.
